The values that follow come from patent publication US20190309084A1 (ALLIGATOR BIOSCIENCE, published 2019).

Substitutions are numbered along the chain they refer to.

The target in test [1] is T1, Human GITR (Acro Biosystems, #GIR-H5228) (human, UniProt Q9Y5U5 26-161).
T1 construct: Bought recombinant protein, amine-coupled to the sensor tips; also called hGITR
T1 sequence: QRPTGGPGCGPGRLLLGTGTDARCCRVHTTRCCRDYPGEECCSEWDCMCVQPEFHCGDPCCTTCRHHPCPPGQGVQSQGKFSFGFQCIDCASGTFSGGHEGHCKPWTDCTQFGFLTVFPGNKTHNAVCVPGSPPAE
In words: BLI (Octet RED96), GITR amine-coupled to AR2G tips, bispecific as analyte, 1:1 fit. In general terms: Biolayer interferometry detects binding as a change in optical thickness at a sensor tip.

Test [2] addresses T2, GITR-hFc (R&D Systems, #689-GR) (human, UniProt Q9Y5U5 26-161).
T2 construct: Bought; also called Human GITR (coated in ELISA plates); not shown: human Fc part of a bought fusion protein
T2 sequence: T1 sequence
In words: dual ELISA: GITR-hFc coated, bispecific titrated, biotinylated CTLA-4-mFc then streptavidin-HRP, luminescence.

The target in test [3] is T2, GITR-hFc (R&D Systems, #689-GR). In words: dual ELISA: GITR-hFc coated, bispecific titrated, detected with biotinylated CTLA-4-mFc + streptavidin-HRP (signal needs binding to both targets); afucosylated IgG1; dual ELISA, signal needs both GITR and CTLA-4. In general terms: ELISA stands for enzyme-linked immunosorbent assay.
Test [4] addresses T3, human CTLA-4 (ACRO Biosystems, #CT4-H5229) (human, UniProt P16410 38-152).
T3 construct: Bought recombinant protein, used as analyte in solution; also called hCTLA-4
In words: BLI (Octet RED96), bispecific captured on anti-hIgG Fc (AHC) tips, hCTLA-4 as analyte, 1:1 fit.

Test [5] deals with T2, GITR-hFc (R&D Systems, #689-GR). In words: dual ELISA: GITR-hFc coated, bispecific titrated, detected with biotinylated CTLA-4-mFc + streptavidin-HRP (signal needs binding to both targets); wildtype IgG1; dual ELISA, signal needs both GITR and CTLA-4.

T3 sequence (P16410 38-152 limits assumed): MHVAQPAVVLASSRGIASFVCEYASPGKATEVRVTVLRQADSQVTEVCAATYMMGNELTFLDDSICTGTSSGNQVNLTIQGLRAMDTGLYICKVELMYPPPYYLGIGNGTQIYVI

B1: GITR/CTLA-4 bispecific antibody 2348/2349 (bispecific antibody)
VH: EVQLLESGGGLVQPGGSLRLSCAASGFTFGYYYMSWVRQAPGKGLEWVSGISSPSSYTYYADSVKGRFTISRDNSKNTLYLQMNSLRAEDTAVYYCARYYGSYFDYWGQGTLVTVSS
light: DIQMTQSPSSLSASVGDRVTITCRASQAISAYLNWYQQKPGKAPKLLIYAASSLQSGVPSRFSGSGSGTDFTLTISSLQPEDFATYYCQQSYGYYLYTFGQGTKLEIKRTVAAPSVFIFPPSDEQLKSGTASVVCLLNNFYPREAKVQWKVDNALQSGNSQESVTEQDSKDSTYSLSSTLTLSKADYEKHKVYACEVTHQGLSSPVTKSFNRGECSGGGGSGGGGSAPLKIQAYFNETADLPCQFANSQNLSLSELVVFWQDQENLVLNEVYLGKERFDSVDSKYMGRTSFDSDSWTLRLHNLQIKDKGRYQCIIHHKKPTGMINIHQMNSELSVLA
notes: Anti-GITR IgG with CD86 mutant 1040 fused to the C-terminus of the kappa chain
In the case of B1, in test [1], the Kd (in general, the free concentration of one partner at which half of the binding sites on the other are occupied at equilibrium, for simple one-to-one binding) came out at 346 pM; the koff (usually the first-order rate constant of dissociation) came out at 5.28e-05 s⁻¹; the on-rate (kon) (commonly the second-order rate constant of association) was 153000 M⁻¹ s⁻¹. Moreover, in test [2], the EC50 (read off the curve) (in general, the concentration at which the effect is half-maximal) is around 1000 pM.

B2: GITR/CTLA-4 bispecific antibody 2372/2373, afucosylated IgG1 format (bispecific antibody)
VH: EVQLLESGGGLVQPGGSLRLSCAASGFTFSGYSMGWVRQAPGKGLEWVSAISGSGGSTYYADSVKGRFTISRDNSKNTLYLQMNSLRAEDTAVYYCARYPWGYYFDYWGQGTLVTVSS
light: B1 light with A28G, S30R, A51V, S91Y, G93Y, Y94P, Y95P, Y97S
modifications: afucosylated Fc domain
For the molecule B2, the 50% effective concentration (EC50) (commonly the concentration that produces a half-maximal response) in test [3] was 540 pM.

B3: GITR/CTLA-4 bispecific antibody 2372/2373, wildtype IgG1 format (bispecific antibody)
VH: B2 VH
light: B1 light with A28G, S30R, A51V, S91Y, G93Y, Y94P, Y95P, Y97S
In test [1], B3 displayed a Kd of 608 pM, a dissociation rate constant (koff) of 0.000214 s⁻¹ and a kon of 351000 M⁻¹ s⁻¹. Further, in test [4], the Kd came to 2900 pM, the koff was 0.000551 s⁻¹ and the kon amounted to 190000 M⁻¹ s⁻¹. Moreover, the half-maximal effective concentration (EC50 (read off the curve)) in test [2] is around 500 pM. The EC50 in test [5] stood at 640 pM.

B4: GITR/CTLA-4 bispecific antibody 2404/2405 (bispecific antibody, IgG1)
VH: EVQLLESGGGLVQPGGSLRLSCAASGFTFSYSSMSWVRQAPGKGLEWVSYIGSGGSHTYYADSVKGRFTISRDNSKNTLYLQMNSLRAEDTAVYYCARYSYYFDYWGQGTLVTVSS
light: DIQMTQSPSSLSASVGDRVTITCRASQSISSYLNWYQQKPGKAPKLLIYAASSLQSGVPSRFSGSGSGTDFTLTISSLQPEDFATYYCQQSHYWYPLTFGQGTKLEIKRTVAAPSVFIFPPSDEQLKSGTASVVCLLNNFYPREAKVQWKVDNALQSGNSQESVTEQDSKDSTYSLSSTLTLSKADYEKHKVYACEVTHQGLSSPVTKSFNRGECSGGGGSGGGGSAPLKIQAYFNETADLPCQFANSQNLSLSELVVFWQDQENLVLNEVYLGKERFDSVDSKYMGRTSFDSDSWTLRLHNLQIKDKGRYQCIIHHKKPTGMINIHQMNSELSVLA
In test [1], B4 had a Kd of 1670 pM, a koff of 0.000423 s⁻¹ and a kon of 254000 M⁻¹ s⁻¹. Moreover, the “EC50 (read off the curve)” value in test [2] was around 600 pM.
